Data: patent publication US20240050559A1 (ICOSAVAX, published 2024)

Target: T1, compA-01
T1 chain: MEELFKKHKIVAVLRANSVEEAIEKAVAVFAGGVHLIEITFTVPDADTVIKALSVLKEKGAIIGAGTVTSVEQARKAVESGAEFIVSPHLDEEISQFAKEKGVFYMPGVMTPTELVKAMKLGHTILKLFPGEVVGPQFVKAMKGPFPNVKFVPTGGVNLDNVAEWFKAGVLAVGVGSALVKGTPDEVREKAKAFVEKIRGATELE
Assay: particle assembly of purified compB-01 with compA-01

B1: compB-01 (I53-50B sequence) (designed binder)
chain: MNQHSHKDHETVRIAVVRARWHAEIVDACVSAFEAAMRDIGGDRFAVDVFDVPGAYEIPLHARTLAETGRYGAVLGTAFVVNGGIYRHEFVASAVINGMMNVQLNTGVPVLSAVLTPHNYDKSKAHTLLFLALFAVKGMEAARACVEILAAREKIAA
notes: Designed pentameric component B of the two-component I53-50 icosahedral particle; also called I53-50B compB-01; bompB-01
binding result: binds
